Test results reported in patent US20090081211A1 (published 2009).

Target: human C3b (UniProt P01024 23-667; P01024 749-1663)
Assay: SPR

Sequence of human C3b (P01024 other isoform, or with tags, fused parts or gaps, chain 1 of 2): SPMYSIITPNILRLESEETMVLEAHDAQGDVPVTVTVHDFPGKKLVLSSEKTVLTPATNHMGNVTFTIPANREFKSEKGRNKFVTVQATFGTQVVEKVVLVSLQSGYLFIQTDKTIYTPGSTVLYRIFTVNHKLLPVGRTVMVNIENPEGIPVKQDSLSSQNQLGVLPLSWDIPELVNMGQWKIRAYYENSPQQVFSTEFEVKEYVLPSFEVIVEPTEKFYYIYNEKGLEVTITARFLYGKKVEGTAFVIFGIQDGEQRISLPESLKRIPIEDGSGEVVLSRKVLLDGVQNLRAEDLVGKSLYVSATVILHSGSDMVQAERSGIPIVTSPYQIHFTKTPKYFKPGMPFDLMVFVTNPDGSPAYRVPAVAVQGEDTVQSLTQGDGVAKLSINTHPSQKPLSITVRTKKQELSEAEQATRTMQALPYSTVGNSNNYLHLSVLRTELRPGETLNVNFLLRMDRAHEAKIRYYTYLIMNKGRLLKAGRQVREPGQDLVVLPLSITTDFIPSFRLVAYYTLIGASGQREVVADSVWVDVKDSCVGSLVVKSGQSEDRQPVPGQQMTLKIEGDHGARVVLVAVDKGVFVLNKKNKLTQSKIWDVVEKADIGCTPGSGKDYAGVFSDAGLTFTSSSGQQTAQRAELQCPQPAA
Sequence of human C3b (P01024 other isoform, or with tags, fused parts or gaps, chain 2 of 2): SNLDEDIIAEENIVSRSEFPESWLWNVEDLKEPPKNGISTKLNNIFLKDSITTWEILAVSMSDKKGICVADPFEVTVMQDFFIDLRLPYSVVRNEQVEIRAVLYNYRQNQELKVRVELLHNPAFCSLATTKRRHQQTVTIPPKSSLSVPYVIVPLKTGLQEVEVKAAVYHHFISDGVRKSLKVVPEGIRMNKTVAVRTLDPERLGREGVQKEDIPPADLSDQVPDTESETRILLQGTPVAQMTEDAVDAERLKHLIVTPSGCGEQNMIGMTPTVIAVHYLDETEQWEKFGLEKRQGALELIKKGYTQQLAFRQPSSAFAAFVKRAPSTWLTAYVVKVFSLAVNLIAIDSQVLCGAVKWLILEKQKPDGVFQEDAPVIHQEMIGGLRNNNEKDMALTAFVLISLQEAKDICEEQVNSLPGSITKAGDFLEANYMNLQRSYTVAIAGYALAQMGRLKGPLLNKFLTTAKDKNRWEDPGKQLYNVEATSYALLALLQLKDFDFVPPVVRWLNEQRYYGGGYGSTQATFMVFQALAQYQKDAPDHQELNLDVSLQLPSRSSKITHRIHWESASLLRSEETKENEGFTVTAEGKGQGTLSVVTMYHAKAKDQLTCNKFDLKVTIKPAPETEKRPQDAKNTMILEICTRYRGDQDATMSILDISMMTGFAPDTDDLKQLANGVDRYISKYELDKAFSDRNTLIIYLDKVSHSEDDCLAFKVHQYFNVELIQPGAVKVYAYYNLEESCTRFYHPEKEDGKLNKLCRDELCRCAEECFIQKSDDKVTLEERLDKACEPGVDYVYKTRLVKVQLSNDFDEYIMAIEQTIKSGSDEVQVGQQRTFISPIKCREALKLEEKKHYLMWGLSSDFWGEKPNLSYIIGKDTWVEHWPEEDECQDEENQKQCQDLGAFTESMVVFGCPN

B1: antibody YW144.2.43.S77 Fab fragment (Fab, V domains shown)
VH: EVQLVESGGGLVQPGGSLRLSCAASGFSFTSSSVSWVRQAPGKGLEWVGLIYPYNGFNYYADSVKGRFTISADTSKNTAYLQMNSLRAEDTAVYYCARNALYGSGGYYAMDYWGQGTLVTVSS
VL: DIQMTQSPSSLSASVGDRVTITCRASQDVSTAVAWYQQKPGKAPKLLIYSASFLYSGVPSRFSGSGSGTDFTLTISSLQPEDFATYYCQQSYATLPTFEQGTKVEIK
Binder B1 has a Kd of 6.47 nM.
